Entries after “also recorded” stand apart in the source; their conditions may differ.
Key:
[1] = test system: Tritrichomonas muris; test: Metronidazole in drinking water of WT (BIH) mice: T. muris abundance in stool DNA by qPCR; format: in vivo; details: metronidazole 2.5 g/L in drinking water for 1 week
Procedure: (§1) Antibiotic treatment—Mice were treated with metronidazole (2.5 g/L) with 1% sucrose in the drinking water for 7 days. Control mice were given 1% sucrose water over the same time span. Fluid intake was monitored and metronidazole solution was changed 4 days after initiating antibiotic treatment.
Tritrichomonas muris enumeration—The distal 10 cm of small intestine was removed and flushed with ice-cold sterile PBS using a 19-gauge feeding needle. The intestinal contents were then pelleted by centrifugation and stored at −20° C. Genomic DNA was isolated from the stool with QIamp Fast DNA Stool mini kit (Qiagen) according to the manufacturer's directions. To detect and enumerate Tritrichomonas muris, quantitative PCR (qPCR) was performed using KAPPA SYBR fast Universal PCR (KAPPA Biosystems) with the following primers recognizing T. muris 28S rRNA gene: 5′-[…]-3′(SEQ ID NO. 1) and 5′-[…]-3′ (SEQ ID NO. 2). To convert qPCR values into parasite numbers, T. muris trophozoytes were isolated and counted using a hemocytomer before extracting genomic DNA and analyzing by qPCR. […] The T. muris 28S rRNA gene and Eubacteria 16S rRNA gene were amplified by qPCR and T. muris 28S relative abundance was calculated as 2^−ΔCt(28S-16S).

[2] = test system: tuft cells; test: Metronidazole in drinking water of WT (BIH) mice: tuft cell frequency in the epithelium; format: in vivo; details: metronidazole 2.5 g/L in drinking water for 1 week, vs control
Procedure: as §1
Histology and Fluorescence microscopy —The small intestine was removed and divided into proximal and distal sections before fixation in 4% paraformaldehyde. The tissue was then embedded in paraffin and cut into 5 μm thick sections. For both histology and immunofluorescence, sections were initially deparaffinized and rehydrated. Hematoxylin and eosin (H&E) staining was performed using standard procedures. Goblet cells were identified by alcian blue/nuclear red staining and enumerated along the crypt-villus axis by quantitative microscopy. For immunofluorescence, heat-mediated antigen retrieval was performed in Tris-EDTA buffer 0.05% Tween-20 pH 9.0 for 20 minutes. Afterwards, the slides were washed in PBS and blocked in PBS containing 3% BSA, 3% donkey serum, 0.1% Triton X-100, 0.1% saponin for 1 hour at room temperature. Primary antibodies were incubated overnight at 4° C. and secondary antibodies were applied for 1.5 hours at room temperature. […]

[3] = test system: tuft cells in small intestinal organoids; test: Small intestinal organoids treated with recombinant cytokine: GFP+ tuft cell abundance by flow cytometry; format: cell-based, mice; details: 48 hours; for tuft cells of total organoid cells: IL-13 10 ng/ml, untreated 0.3%; for effect on tuft cell numbers / abundance in organoids (in words): WT and Trpm5-/- organoids, IL-13 10 ng/ml or IL-25 50 ng/ml
Procedure: Small intestine organoid culture and flow cytometry—Distal small intestinal organoids were prepared as previously described (Miyoshi et al., Nat Protoc. 8, 2471-2482 (2013)). To assess cytokine effects on tuft cells abundance, IL-13 (10 ng/ml, Biolegend, Endotoxin level <0.01 ng/μg) or IL-25 (50 ng/mil, Biolegend, Endotoxin level <0.01 ng/μg) were added to organoid media for 48 hours. To perform flow cytometry, organoids were liberated from the matrigel matrix as described by Miyoshi et al. and digested in DMEM containing 10% FBS, 0.5 units/ml Dispase II (StemCell Technologies), 50 μg/ml DNase (Roche) for 8 minutes at 37° C. The resulting solution was filtered through 40 μm mesh and stained for flow cytometry with APC-conjugated anti-EpCam (clone G8.8, Biolegend) with cell viability assessed with PI (Biolegend).

[4] = test system: DCLK1 and Trpm5 expression in organoids; test: Small intestinal organoids treated with cytokine: gene expression by RT-qPCR; format: cell-based, mice; details: IL-13 treated organoids
Excerpt: RNA isolation and RT-PCR for in vivo and vitro tuft cells—Epithelial cells from Gfi1b^EGFP/+ mice were isolated and stained for Fluorescence Activated Cell Sorting (FACS) as previously detailed. Tuft cells were sorted based on GFP^+EpCam^+CD45^−PI^− while the remaining epithelial cells were GFP-EpCam^+CD45^−PI^−. RNA was then extracted from tuft cells and the remaining epithelium using RNeasy Micro Kit (Qiagen). Whole intestinal organoids were initially stored in RNAlater solution (Ambion) before extracting RNA using Qiazol (Qiagen) according to the manufacturer's directions. cDNA was synthesized using the iScript cDNA Synthesis Kit (Bio-Rad) and RT-qPCR was performed using the KAPA SYBR FAST Universal qPCR Kit (KAPA Biosystems). […]
Small intestine organoid culture and flow cytometry—Distal small intestinal organoids were prepared as previously described (Miyoshi et al., Nat Protoc. 8, 2471-2482 (2013)). […] The resulting solution was filtered through 40 μm mesh and stained for flow cytometry with APC-conjugated anti-EpCam (clone G8.8, Biolegend) with cell viability assessed with PI (Biolegend).

[5] = test system: eosinophils and tuft cells of the distal small intestine; test: In vivo IL-25 i.p. injections in T. muris colonized Trpm5-/- mice: eosinophils and tuft cells of distal small intestine; details: 0.5 μg IL-25 i.p. daily for 7 days, vs PBS
Procedure: Epithelial cell isolation and flow cytometry —The distal 10 cm of small intestine was removed and flushed as described above. The intestine was opened longitudinally and gently agitated at 4° C. in PBS, 2% FBS, 5 mM EDTA, 1 mM DTT for 10 min. The tissue was then transferred into prewarmed PBS, 2% FBS, 5 mM EDTA and rotated at 37° C. for 15 minutes followed by vigorous shaking to remove epithelial cells. This was repeated and epithelial cells from both fractions were combined and washed with PBS. The epithelium was then digested in DMEM containing 10% FBS, 0.5 units/ml Dispase II (StemCell Technologies), 50 μg/ml DNase (Roche) for 12 minutes at 37° C. The resulting solution was passed through 40 μm filters and washed with PBS, 2% FBS, 1 mM EDTA. The resulting single cell suspension was initially Fc blocked with anti-CD16/CD32 (clone 93, Biolegend) and then stained with the following antibodies: PacBlue-conjugated anti-CD45 (clone 30-F11, Biolegend), APC-conjugated anti-EpCam (clone G8.8, Biolegend). The cell viability was assessed by propidium iodide (PI) (Biolegend) staining.
Lamina propria cell isolation and flow cytometry—The distal 10 cm of small intestine was collected and epithelial cells were removed as detailed above. […]

Row | Molecule | T. muris levels in stool (T. muris 28S rRNA relative to eubacteria 16S rRNA) [1] | tuft cell abundance / frequency in the epithelium [2] | tuft cells of total organoid cells ([3]; Trpm5-/- organoids) [%] | effect on tuft cell numbers / abundance in organoids (in words) [3] | tuft cells of total organoid cells ([3]; WT organoids) [%] | expression of Dclk1 in organoids [4] | expression of Trpm5 in organoids [4] | distal small intestinal eosinophilia [5] | tuft cell abundance in distal small intestine [5]
1 | Cc1ncc([N+](=O)[O-])n1CCO [metronidazole] | eliminated T. muris; also recorded: below the limit of detection | reduced tuft cell abundance; also recorded: reduces tuft cell frequency |  |  |  |  |  |  | 
2 | IL-13: recombinant IL-13 (Biolegend), type 2 cytokine added to organoid media (protein, UniProt P20109 19-131, looked up) Interleukin-13: APGPVPRSVSLPLTLKELIEELSNITQDQTPLCNGSMVWSVDLAAGGFCVALDSLTNISNCNAIYRTQRILHGLCNRKAPTTVSSLPDTKIEVAHFITKLLSYTKQLFRHGPF |  |  | 10.9 | increases tuft cell abundance | 11.9 | increased | increased |  | 
3 | IL-25: recombinant IL-25 (Biolegend; R&D), parasite-induced cytokine, added to organoids or injected i.p. (protein, UniProt Q8VHH8 17-169, looked up) Interleukin-25: VSLRIQEGCSHLPSCCPSKEQEPPEEWLKWSSASVSPPEPLSHTHHAESCRASKDGPLNSRAISPWSYELDRDLNRVPQDLYHARCLCPHCVSLQTGSHMDPLGNSVPLYHNQTVFYRRPCHGEEGTHRRYCLERRLYRVSLACVCVRPRVMA |  |  |  | did not increase tuft cell numbers |  |  |  | restoration | restoration

Reference: patent US20220054591A1, “METHODS OF TREATING OF INFLAMMATORY BOWEL DISEASE AND PARASITE INFECTION” (President and Fellows of Harvard College, priority 2016, published 2022)
